According to US12084521B2, “TLR9 inhibitors to suppress inflammatory response to pathogens” (University Of Maryland, Baltimore, priority 2018, dated 2024):
No end group written: not given here. Cy3 = Cy3 fluorescent dye label

Assays:
MyD88 TIR = target: T1, MyD88 TIR (Homo sapiens, UniProt Q99836); experiment: FLIM/FRET binding of Cy3-labeled peptides to Cer-fused TIR in HeLa cells
T1 construct: expressed in transfected cells; host or cells: HeLa
Procedure: (§1) Three million HeLa cells were transfected with 10 μg of MyD88-Cer, TIRAP-Cer, TRAM-Cer, TLR2-Cer, TLR4 TIR-Cer, or TLR9 TIR-Cer expression vectors using a Lipofectamine™ 3000 kit from Invitrogen™ per manufacturer recommendations. Twenty four hours later, the transfected cells were trypsinized and reseeded into a 50-well gasket (Grace Bio-Labs™) mounted on a microscope slide at the density 8000 cells/well. The next day, cells were treated with Cy3-9R34-ΔN or Cy3-9R11 for 1 hour and fixed on the slides with a 4% paraformaldehyde solution.
(§2) Fluorescence lifetime images were acquired using the Alba V FLIM™ system (ISS™ Inc.). The excitation was from the laser diode 443 nm coupled with scanning module (ISS™) through multiband dichroic filter 443/532/635 nm (Semrock™) to Olympus™ IX71S microscope with objective 20×0.45 NA (UPlan™ Olympus™). Emission was observed through bandpass filter […] (Chroma Technology™) and detected by a photomultiplier H7422-40 (Hamamatsu™). Measurements were performed using frequency domain (FD) and time domain (TD) modalities of the FLIM system. FD FLIM data were acquired using ISS™ A320 FastFLIM™ electronics with n harmonics of 20 MHz laser repetition frequency (n=1, 2, 3, 4, 5, 6). FastFLIM™ was calibrated using fluorescein in buffer pH 8.0 as a standard with a single lifetime of 4.0 ns. TD FLIM images were acquired using time-correlated single photon counting TCSPC™ Model SPC-830 (Becker & Hick™).
(§3) Images (256×256 pixels) were acquired with resolution varied in the range ˜0.4-0.7 μm/pixel, using scan speed 1 ms/pixel. To avoid pixel intensity saturation in bright cells and to improve the signal from dim cells, two to five overlapping scans were used for acquisition of FLIM images. Image sizes varied from 100×100 to 180×180 μm to accommodate multiple cells. FLIM data were analyzed with VistaVision™ Suite software (Vista™ v.212 from ISST). Fluorescence lifetime was determined using single- and bi-exponential intensity decay models. Average lifetime images were generated based on pixel-by-pixel analysis using the combined signal of two neighboring pixels in all directions (bin 2=25 pixels). The binning was used to improve the signal for analysis. The average lifetimes were calculated from fitted parameters, decay times τi and amplitudes αi, τa=Σαiτi. The bi-exponential fitting procedure was performed with one lifetime component fixed at 3.1 nsec, which was found common for most images. To calculate the effective FRET efficiency (E), average lifetimes of the donor only images (τD) and donor-acceptor images (τDA) were used, E=1−τDA/τD.
(§4) To identify potential binding partners of inhibitory peptides a FRET approach coupled with Fluorescence Lifetime Imaging Microscopy (FLIM) was used. HeLa cells were transiently transfected with an expression vector that encodes a TIR domain fused with Cerulean fluorescent protein (Cer). Cells were treated with various concentrations of a Cy3-labeled inhibitory peptide 48 hours after transfection. Cy3 is a suitable FRET acceptor for Cer fluorescence. A direct molecular interaction of a Cy3-labeled peptide with Cer-fused TIR domain should quench Cer fluorescence, leading to a decreased fluorescence lifetime.
(§5) TLR9, MyD88, and TIRAP were selected as potential primary binding partners for Cy3-9R34-ΔN and Cy3-9R11. Cer-fused TLR2 and TLR4 TIR domains, and Cer not fused to a TIR, were used as controls. […] Therefore, the TIRAP-Cer with Cy3-2R9 was used as a positive binding control. Binding of Cy3-labeled CPDPs to Cerulean- (Cer-) labeled TIR domains was tested as follows. Fluorescence Lifetime IMages (FLIM) were made of HeLa cells expressing Cer not fused with a TIR domain (upper row) or fused with TLR9 TIR or TIRAP TIR (middle and bottom rows) and treated with a Cy3-labeled decoy peptide for 1 hour.
(§6) A progressive shift of average fluorescence lifetime towards lower values observed with increasing peptide concentrations indicates the binding between donor and acceptor moieties. […]

TIRAP TIR = target: T2, TIRAP TIR (Homo sapiens, UniProt P58753); experiment: as above; settings: for quenching of TIRAP-Cer fluorescence: HeLa cells, Cy3-peptide 2.5-40 μM, 1 hour
T2 construct: fused with TLR9 TIR or TIRAP TIR; expressed in transfected cells; host or cells: HeLa
Procedure: as §1, §2, §3, §4, §5, §6

TLR9 TIR = target: T3, TLR9 TIR (Homo sapiens, UniProt Q9NR96); experiment: as above; settings: for FRET efficiency, TLR9 TIR-Cer: HeLa cells, Cy3-peptide 2.5-40 μM, 1 hour, dose-dependent
T3 construct: expressed in transfected cells; host or cells: HeLa
T3 sequence (Q9NR96 868-1013 limits assumed): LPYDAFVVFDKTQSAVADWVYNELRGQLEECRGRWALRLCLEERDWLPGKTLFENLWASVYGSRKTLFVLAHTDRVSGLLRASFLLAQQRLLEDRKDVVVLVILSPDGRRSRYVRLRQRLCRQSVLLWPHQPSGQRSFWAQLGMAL
Procedure: as §1, §2, §3, §4, §5, §6

[1] = test system: Cer not fused to a TIR domain; experiment: FLIM/FRET control construct in HeLa cells; assay type: binding; settings: peptide 40 μM
Procedure: as §1, §2, §3, §5

TLR2 TIR-Cer = target: T4, TLR2 TIR-Cer (Homo sapiens, UniProt O60603); experiment: FLIM/FRET control construct in HeLa cells; assay type: binding; settings: peptide 40 μM
T4 construct: Cer-fused TLR2 and TLR4 TIR domains; expressed in transfected cells; host or cells: HeLa
Procedure: as §1, §2, §3, §5

TLR4 TIR-Cer = experiment: FLIM/FRET control construct in HeLa cells; assay type: binding; settings: peptide 40 μM
Procedure: as §1, §2, §3, §5

TRAM-Cer = target: T5, TRAM-Cer (Homo sapiens, UniProt Q86XR7); experiment: FLIM/FRET control construct in HeLa cells; assay type: binding; settings: peptide 40 μM
T5 construct: expressed in transfected cells; host or cells: HeLa
Procedure: as §1, §2, §3, §5

T2 sequence (P58753 84-213 limits assumed): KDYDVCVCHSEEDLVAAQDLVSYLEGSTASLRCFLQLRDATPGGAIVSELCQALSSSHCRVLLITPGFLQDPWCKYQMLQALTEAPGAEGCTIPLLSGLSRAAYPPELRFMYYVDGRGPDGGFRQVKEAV
T1 sequence (Q99836 159-293 limits assumed): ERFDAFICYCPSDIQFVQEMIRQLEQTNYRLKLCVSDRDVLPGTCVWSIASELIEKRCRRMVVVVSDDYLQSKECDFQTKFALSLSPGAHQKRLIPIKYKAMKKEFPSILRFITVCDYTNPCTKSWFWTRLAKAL
T4 sequence (O60603 639-782 limits assumed): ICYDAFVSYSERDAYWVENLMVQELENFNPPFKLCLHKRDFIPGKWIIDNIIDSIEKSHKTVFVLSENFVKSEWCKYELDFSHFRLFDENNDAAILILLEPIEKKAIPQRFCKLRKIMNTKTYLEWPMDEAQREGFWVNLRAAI
T5 sequence (Q86XR7 whole entry): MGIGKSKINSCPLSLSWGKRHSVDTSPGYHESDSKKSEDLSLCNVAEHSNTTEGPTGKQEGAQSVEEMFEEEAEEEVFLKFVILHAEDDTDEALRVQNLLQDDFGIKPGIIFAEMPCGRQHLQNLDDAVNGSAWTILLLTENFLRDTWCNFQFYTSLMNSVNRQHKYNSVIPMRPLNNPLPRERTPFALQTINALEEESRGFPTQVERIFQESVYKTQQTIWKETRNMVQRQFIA

Substance | quenching of MyD88 TIR-Cer (MyD88 TIR; peptide 40 μM, considerably less than on TLR9 and TIRAP TIR-Cer) | average fluorescence lifetime of Cer-labeled MyD88 TIR (MyD88 TIR; peptide 2.5 and 10 μM) | effect on TIRAP-Cer fluorescence at the lowest peptide concentration (TIRAP TIR; 2.5 μM) | quenching of TIRAP-Cer fluorescence (TIRAP TIR) | FRET efficiency, TLR9 TIR-Cer (TLR9 TIR) | fluorescence lifetime of TLR9 TIR-Cer construct (TLR9 TIR; minimal peptide concentration 2.5 μM) | fluorescence lifetime of Cer not fused to a TIR domain (unspecific quenching) [1] | fluorescence lifetime of control TLR2 TIR-Cer (TLR2 TIR-Cer) | fluorescence lifetime of control TLR4 TIR-Cer (TLR4 TIR-Cer) | fluorescence lifetime of control TRAM-Cer (TRAM-Cer) | quenching of MyD88-Cer fluorescence lifetime (MyD88 TIR)
Cy3-9R34-ΔN: Cy3-labeled 9R34-ΔN peptide, Cy3 label placed at the peptide N-terminus (Cy3-RQIKIWFQNRRMKWKKALRLCLEERD) | notable | not affected | absence of the effect | notably quenched | 9-23% | decreased | slightly affected | slightly affected | slightly affected | slightly affected | 
Cy3-9R11: Cy3-labeled 9R11 peptide, Cy3 label placed at the peptide N-terminus (Cy3-RQIKIWFQNRRMKWKKRSFWAQLGMALTRD) |  |  |  | induced FRET from TIRAP-Cer, but only when used at higher concentrations of 10 or 40 μM | 3-27% |  | Unspecific Cer quenching |  |  |  | detectable, but less effective
